# From patent US7888116B2, “Uses of notch receptors, notch ligands, and notch modulators in methods related to metabolic diseases” (The United States of America as represented by the …, priority 2005, dated 2011)
# Tested on: Notch-1 (NICD)
# Assay: NICD nuclear translocation in RIN cells (indirect immunofluorescence, immunoblot of nuclear extracts)
# Format: cell-based, rat
# Settings: RIN cells treated with secretagogues
# Experimental: Islet isolation, cell culture and treatments. Adult rat (Sprague-Dawley) and mouse (C57/BL6) islets were isolated by collagenase P digestion and cultured overnight in M199 medium (5 mM glucose). RIN 1046-38 β-cells were cultured as outlined previously (Wang, et al., Endocrinology, 142:1820-1827 (2001)). Isolated human islets came from David Harlan, Transplant Section, NIDDK. Ex-4, GLP-1, CCK (all used at concentrations previously shown to cause maximum insulin release), Ex and the γ-secretase inhibitor, L-685,458, were obtained from Bachem. H89 was from Calbiochem, insulin was from Sigma. The Jagged peptides, R-JAG […] (SEQ ID NO:1), JAG-1 […] (SEQ ID NO:2), and scrambled control peptide without agonist activity, sc-Jagged […] (Nickoloff, et al., Cell Death Differ, 9842-855 (2002)) (SEQ ID NO:3), were synthesised by New England Peptide Inc. […]
# RIN cells were permeabilized in Triton-X (0.1%) on ice and blocked for 1 h at room temperature in 3% BSA and 0.1% Tween in PBS. They were incubated overnight at 4° C. with the primary antibody, washed in PBS and incubated with fluorescent labelled secondary antibody for 1 h, washed and mounted with fluorescence mounting medium (Vector Laboratories). […] AlexaFluor antibodies (Molecular Probes; Eugene, Oreg.) were excited with the 488-nm line of a krypton-argon laser and recorded at the presence of emission filter BP515-565 nm. […]
molecule,measurement,value
"Cholecystokinin (peptide, UniProt P06307 21-115, looked up, Cholecystokinin, increases insulin secretion in a non-cAMP dependent manner) Cholecystokinin: QPVPPADPAGSGLQRAEEAPRRQLRVSQRTDGESRAHLGALLARYIQQARKAPSGRMSIVKNLQNLDPSHRISDRDYMGWMDFGRRSAEEYEYPS",nuclear NICD / NICD translocation,did not increase NICD translocation above that seen with glucose alone
